In EP1593386A1 (Charité - Universitätsmedizin Berlin, dated 2005):

Target: T1, CD7 on human peripheral blood T lymphocytes (human, UniProt P09564 26-240)
T1 construct: whole, on cells
T1 sequence (looked up): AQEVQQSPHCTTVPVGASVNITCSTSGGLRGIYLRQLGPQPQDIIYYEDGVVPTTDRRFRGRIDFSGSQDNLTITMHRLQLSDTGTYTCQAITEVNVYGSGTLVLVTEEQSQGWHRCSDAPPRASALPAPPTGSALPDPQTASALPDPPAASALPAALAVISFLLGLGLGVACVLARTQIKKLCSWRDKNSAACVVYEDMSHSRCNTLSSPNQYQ
Assay: pull-down with galectin-2 coated tosyl-activated magnetic beads on PBT, immunoblot for CD7

B1: galectin-2 (ligand, UniProt P05162 1-132, looked up)
chain: MTGELEVKNMDMKPGSTLKITGSIADGTDGFVINLGQGTDKLNLHFNPRFSESTIVCNSLDGSNWGQEQREDHLCFSPGSEVKFTVTFESDKFKVKLPDGHELTFPNRLGHSHLSYLSVRGGFNMSSFKLKE
modifications: biotin-labelled (sites not given) in the flow cytometry assays; coupled to tosyl-activated magnetic beads in the co-immunoprecipitation
notes: also called Gal-2; biotin-labelled galectin-2
B1: no binding.
